Measured values reported in PMC6745058 (Molecular cell, 2019).

Target: T1, Rtt107NTD (BRCT1-4 domains of Rtt107, residues 2-513) (S. cerevisiae, UniProt P38850 2-513)
T1 sequence (looked up): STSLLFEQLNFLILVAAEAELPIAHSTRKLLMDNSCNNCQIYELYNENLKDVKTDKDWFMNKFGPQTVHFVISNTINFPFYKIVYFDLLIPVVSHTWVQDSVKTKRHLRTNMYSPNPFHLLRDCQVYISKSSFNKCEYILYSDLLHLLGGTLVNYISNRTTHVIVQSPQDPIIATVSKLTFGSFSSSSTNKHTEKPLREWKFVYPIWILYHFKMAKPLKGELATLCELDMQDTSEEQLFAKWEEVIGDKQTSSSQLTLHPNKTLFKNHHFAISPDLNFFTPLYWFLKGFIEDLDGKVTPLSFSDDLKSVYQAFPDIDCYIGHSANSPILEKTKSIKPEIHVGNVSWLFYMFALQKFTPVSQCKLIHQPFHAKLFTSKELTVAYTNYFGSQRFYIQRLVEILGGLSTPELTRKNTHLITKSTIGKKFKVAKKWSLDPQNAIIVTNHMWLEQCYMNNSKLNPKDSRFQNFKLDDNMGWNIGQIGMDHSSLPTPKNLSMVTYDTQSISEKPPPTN
Experiment: ITC

B1: Mms22RIM peptide (Mms22 residues 2-38) (peptide, UniProt Q06164 2-38, looked up)
chain: DVDEPNPIVISDSEATDEEISIIYEPEFNENYLWAEE
- Kd: 15 nM
